The nature of this series: soluble on expression in E. coli; label from the status in PepcDB or PDB records.
For the sequence “MMSLVIAFISCSKSDEDKVIKEENPKITSDTFSAVIKDGFTGENGEDLILYKNLKNIVVGDYIPYDITIKDEDSANTKYILTPTRIGEKNHQYFQIDYDVYLDNDKGEKVRVNAITFDKIGKHRFYIKPLVPGTFKLSFVLQREQNGQKVQDIKFPTLNFNVVKITVYKTQIFIGLYEVRFYIEDGENETDIYLSPDPSVKQTFVSKYNDMTYTGDFNVKEFCKVGYYSSTIKTITSITIIQKREGEEEYRIEYYNIPIP”, the “soluble on expression in E. coli” value was “not soluble”. Turning to “GKSIFDKLWDRHVITGKEGEPQLMYVDQHYIHEVTSPQAFQGLRDAGRKVRRPDLTFGTFDHNVPTVNIYDIRDVISKAQMDALARNVIEFNIPHADHGSENQGIVHMVGPETGRTQPGKFIVCGDSHTATHGAFGAIGFGIGTTEVEHVFATQTIWQVKPKK”, the “soluble on expression in E. coli” value was “not soluble”. The entry for “IPIPSALEARLDAYVALLQQWQAKTNLVAPSTLPQLWTRHVADSLQLVSLMPHARRWLDFGSGGGFPGVVLACAMADVGGHVTLVERIAKKAAFLREALRVAGAPGTVILADIGDNVDRFPQALDCITARAVAPLHQLIGFAEPLMTPGTTKALFLKGQDVDAELTETTKYWKFQPKLHASVTGGQGWIVEIDHIER” is “not soluble”. Then “MNDPREILAVDPYNNITSDEEDEQAIARELEFMERKRQALVERLKRKQEFKKPQDPNFEAIEVPQSPTKNRVKVGSHNATQQGTKFEGSNINEVRLSQLQQQPKPPASTTTYFMEKFQNAKKNEDKQIAKFESMMNARVHTFSTDEKKYVPIITNELESFSNLWVKKRYIPEDDLKRALHEIKILRLGKLFAKIRPPKFQEPEYANWATVGLISHKSDIKFTSSEKPVKFFMFTITDFQHTLDVYIFGKKGVERYYNLRLGDVIAILNPEVLPWRPSGRGNFIKSFNLRISHDFKCILEIGSSRDLGWCPIVNKKTHKKCGSPINISLHKCCDYHREVQFRGTSAKRIELNGGYALGAPTKVDSQPSLYKAKGENGFNIIKGTRKRLSEEEERLKKSSHNFTNSNSAKAFFDEKFQNPDMLANLDNKRRKIIETKKSTALSRELGKIMRRRESSGLEDKSVGERQKMKRTTESALQTGLIQRLGFDPTHGKISQVLKSSVSGSEPKNNLLGKKKTVINDLLHYKKEKVILAPSKNEWFKKRSHREEVWQKHFGSKETKETSDGSASDLEII”, with “soluble”; and “KILEREFSMNEQLFKDLFDRAVDGIVLFDKDGGFIDANLSFCKSFEINHNELSHLSLYEFIDSGSRKDFDNIWKALNRKGKAKGELPVKLRSGVQKLFEFTITSNIISGFYMSIMRDIT”, with “not soluble”; and “MGSDKIHHHHHHMETSAPRAGSQVVATTARHSAAYRADPLRVSSRDKLTEMAASSQGNFEGNFESLDLAEFAKKQPWWRKLFGQESGPSAEKYSVATQLFIGGVTGWCTGFIFQKVGKLAATAVGGGFFLLQLANHTGYIKVDWQRVEKDMKKAKEQLKIRKSNQIPTEVRSKAEEVVSFVKKNVLVTGGFFGGFLLGMAS”, with “not soluble”.

“SAVKAQVLYDFTAEPGNNELTVHEGETLTITNQNVGGGWVEAQNSRGNVGLVPVDYVEVNSASAQAPATQYIDARNQGNNNSTANTQGVNGNEAWTATTWSNSYPADNWNYTEQEPAGNNGSVYSFDEEWDDDSDDGKSTGGYGGSQAEDGGTMQRSGAHSTMKLSLNKFPGFSKTPNPEVYLLTKHITKGNDRLSVYPGEVGPVWLYPQTQLDCVVADPKKGSKMYGLKSYIEYQITPNTTNRPVNHRYKHFDWLYERLVEKFACALPVPGLPDKQVTGRFEEEFIKMRMERLQGWMSRMCRHPVISNSEVFQLFLNYRDEKEWKLGKRKAEKDETVGVKIFSTIDPELPELDPAQVEQKYEVYNQFTRSMDNSVKELLAVGNLHWKRCTGPLQKEYRQIGKAFQNMSSVFNTSGYPRESTLTEALTATGKTYEEIAEVIAAQPRKDLHFLLETNNEYKGLLGCFPDTIGVHKAAIDKVKEADHLVMTNKISQQDKHTMEKNLSTMSYALQAEMNHFHSNRIYDYNRLMQFYLEEQVKFYETIAEKLKKALGQYTTI”: the “soluble on expression in E. coli” value is “soluble”. Consider “MDCRLGCGACCIAPSISSPIPGMPKGKPAGVRCVQLNDDNLCKLFGKPERPKVCHDFKPCPVVCGKTNQEALDNITELEQLTLEHHHHHH”, for which the “soluble on expression in E. coli” value is listed as “soluble”.

(Values after the DeepSol protein solubility set.)
